The results in this text go back to the RNAGym collection of RNA variant scans (doi:10.7554/elife.80360).

Sequences and labels used below:
B1: HDV Ribozyme (parent)
chain: GGCCGGCAUGGUCCCAGCCUCCUCGCUGGCGCCGGCUGGGCAACAUUCCGAGGGGACCGUCCCCUCGGUAAUGGCGAAUGGGACCCA

The variants in the data set derive from B1. The experiment in a line: self-cleavage, relative activity (ratio to wild type); higher = more cleavage; co-transcriptional.
Regarding GGCCGGCAUGGUCCCAGCCUCCUCGCUGGCGCCGGCUGGGCACCAUUCCGAGGGGACCGCCCCCUCGGUAAUGGCGAAUGGGACCCA, the self-cleavage came to 0.532. Turning to GGCCGGCAUGGUCCCAGCCUCCUCGCUGGCGCCGGCUGGGCACCAGUCCGAGGGGACCGUCCCCUCGGUAAUGGCGAAUGGGACCCA, the self-cleavage was determined as 0.415. Consider GGCCGGCAUGGUCCCAGCCUCCUCGCUGGCGCCGGCUGGGCAGCAUUCCGAGGGGACCGUCCCCUCGGUAAUGGCGAAUGGGACCCU, for which the self-cleavage was determined as 0.554. For the variant GGCCGGCAUGGUCCCAGCCUCCUCGCUGGCGCCGGCUGGGCAGCAUUCCGAGGGGACCGUCCCCUCGGUAAUAGCGAAUGGGACCCA, the self-cleavage was determined as 0.219. Regarding GGCCGGCAUGGUCCCAGCCUCCUCGCUGGCGCCGGCUGGGCAGCAUUCCGAGGGGACCCUCCCCUCGGUAAUGGCGAAUGGGACCCA, the self-cleavage stood at 0.637. In the case of GGCCGGCAUGGUCCCAGCCUCCUCGCUGGCGCCGGCUGGGCAGCAUUCCGAGGGGACCUUCCCCUCGGUAAUGGCGAAUGGGACCCA, the self-cleavage came out at 0.601. For GGCCGGCAUGGUCCCAGCCUCCUCGCUGGCGCCGGCUGGGCAUCAUUCCGCGGGGACCGUCCCCUCGGUAAUGGCGAAUGGGACCCA, the self-cleavage was 0.525. In the case of GGCCGGCAUGGUCCCAGCCUCCUCGCUGGCGCCGGCUGGGCAGCAUUCCGAGGGGACCGUCCCCUCGGUAAUGGCGAAUGGGGCCCA, the self-cleavage worked out at 0.215. Regarding GGCCGGCAUGGUCCCAGCCUCCUCGCUGGCGCCGGCUGGGCAGCAUUCCGAGGGGACCGUCCCCUCGCUAAUGGCGAAUGGGACCCA, the self-cleavage turned out to be 0.253.

GGCCGGCAUGGUCCCAGCCUCCUCGCUGGCGCCGGCUGGGCAGCAUUCCGAGGGGACCGUCCCCUCGAUAAUGGCGAAUGGGACCCA: the self-cleavage amounted to 0.665. In the case of GGCCGGCAUGGUCCCAGCCUCCUCGCUGGCGCCGGCUGGGCAGCAUUCCGAGGGGACCGUCCCUUCGGUAAUGGCGAAUGGGACCCA, the self-cleavage amounted to 0.657. As for GGCCGGCAUGGUCCCAGCCUCCUCGCUGGCGCCGGCUGGGCAGCAUUCCGAGGGGACCGUCCCGUCGGUAAUGGCGAAUGGGACCCA, the self-cleavage was 0.644. With GGCCGGCAUGGUCCCAGCCUCCUCGCUGGCGCCGGCUGGGCAGCAUUCCGAGGGGACCGUCCCCUCGGUUAUGGCGAAUGGGACCCA, the self-cleavage was 0.743. Turning to GGCCGGCAUGGUCCCAGCCUCCUCGCUGGCGCCGGCUGGGCAGCAUUCCGAGGGGACCGUCCCCUCGGUCAUGGCGAAUGGGACCCA, the self-cleavage is 0.9. Take GGCCGGCAUGGUCCCAGCCUCCUCGCUGGCGCCGGCUGGGCAGCAUUCCGAGGGGACCGUCCCCUCGGUAAUGGCGAAUAGGACCCA: the self-cleavage came to 0.115. For GGCCGGCAUGGUCCCAGCCUCCUCGCUGGCGCCGGCUGGGCAGCAUUCCGAGGGGACCGUCCCCUCGGUAAUGGCGAAUUGGACCCA, the self-cleavage amounted to 0.0916. For the variant GGCCGGCAUGGUCCCAGCCUCCUCGCUGGCGCCGGCUGGGCAGCAUUCCGAGGGAACCGUCCCCUCGGUAAUGGCGAAUGGGACCCA, the self-cleavage was found to be 0.566.

Consider GGCCGGCAUGGUCCCAGCCUCCUCGCUGGCGCCGGCUGGGCAGCCUUCCGAGGGGACCGUCCCCUCGGUAAUGGCGAAUGGGACCCA, for which the self-cleavage is 0.0504.

With GGCCGGCAUGGUCCCAGCCUCCUCGCUGGCGCCGGCUGGGCAGCUUUCCGAGGGGACCGUCCCCUCGGUAAUGGCGAAUGGGACCCA, the self-cleavage came out at 0.584.

In the case of GGCCGGCAUGGUCCCAGCCUCCUCGCUGGCGCCGGCUGGGCAGCAUUCCGAGGGGACCGUCCUCUCGGUAAUGGCGAAUGGGACCCA, the self-cleavage is 0.615. As for GGCCGGCAUGGUCCCAGCCUCCUCGCUGGCGCCGGCUGGGCAGCAUUCCGAGGGGACCGUCCCCUCAGUAAUGGCGAAUGGGACCCA, the self-cleavage was found to be 0.804. For GGCCGGCAUGGUCCCAGCCUCCUCGCUGGCGCCGGCUGGGCAGCAUUCCGAGGGGACCGUCCCCUCUGUAAUGGCGAAUGGGACCCA, the self-cleavage came to 0.527. In the case of GGCCGGCAUGGUCCCAGCCUCCUCGCUGGCGCCGGCUGGGCAGCAUUCCGAGGGGACCGUCCCCCCGGUAAUGGCGAAUGGGACCCA, the self-cleavage is 0.522. In the case of GGCCGGCAUGGUCCCAGCCUCCUCGCUGGCGCCGGCUGGGCAGCAUUCCGAGGGGACCGUCCCCUCGGUAAUGGCGAAUGGGACCUA, the self-cleavage was 0.739.

As for GGCCGGCAUGGUCCCAGCCUCCUCGCUGGCGCCGGCUGGGCAGCAUUCCGAGGGGACCGUCCCCUCGGUAAGGGCGAAUGGGACCCA, the self-cleavage was determined as 0.554. Regarding GGCCGGCAUGGUCCCAGCCUCCUCGCUGGCGCCGGCUGGGCAGCAUACCGAGGGGACCGUCCCCUCGGUAAUGGCGAAUGGGACCCA, the self-cleavage is 0.383. Consider GGCCGGCAUGGUCCCAGCCUCCUCGCUGGCGCCGGCUGGGCACCAUUCCGAGGGGACCGUCCCCUCGGUAAUGGCGAAUGUGACCCA, for which the self-cleavage was determined as 0. On to GGCCGGCAUGGUCCCAGCCUCCUCGCUGGCGCCGGCUGGGCAGCAUUCCGAGGGGACCGUCCCCUCGGUAAUGGCGGAUGGGACCCA, for which the self-cleavage came to 0.332.

Take GGCCGGCAUGGUCCCAGCCUCCUCGCUGGCGCCGGCUGGGCAGCAUUCCGAGGGGACCGUCCCCUCGGUAAUGGCGCAUGGGACCCA: the self-cleavage worked out at 0.0723. Turning to GGCCGGCAUGGUCCCAGCCUCCUCGCUGGCGCCGGCUGGGCACCAUUCCGAGGGGACCGUCCCCUCGGUAAUGGCGAAUGGUACCCA, the self-cleavage amounted to 0.0545. Next, GGCCGGCAUGGUCCCAGCCUCCUCGCUGGCGCCGGCUGGGCACCAUUCCGAGGGGACCGUCCCCUCGGUAAUGGCGAAUGGAACCCA: 0.185. GGCCGGCAUGGUCCCAGCCUCCUCGCUGGCGCCGGCUGGGCAGCAUUCCGAGGGGACCGUCCCCUCGGUAAUGGCGAUUGGGACCCA: the self-cleavage turned out to be 0.178.
